From patent US20170275666A1, “Methods for Preparing Rebaudioside I and Uses” (The Coca-Cola Company, priority 2014, published 2017)
Where a chain is given by its changes, count along the chain named.

B1: UGT76G1var3: UGT76G1 variant, mutations I295T_S357C_V366I (protein, UniProt Q6VAB4 1-458, looked up, variant I295T S357C V366I)
UDP-glycosyltransferase 76G1: MENKTETTVRRRRRIILFPVPFQGHINPILQLANVLYSKGFSITIFHTNFNKPKTSNYPHFTFRFILDNDPQDERISNLPTHGPLAGMRIPIINEHGADELRRELELLMLASEEDEEVSCLITDALWYFAQSVADSLNLRRLVLMTSSLFNFHAHVSLPQFDELGYLDPDDKTRLEEQASGFPMLKVKDIKSAYSNWQILKEILGKMIKQTKASSGVIWNSFKELEESELETVIREIPAPSFLIPLPKHLTASSSSLLDHDRTVFQWLDQQPPSSVLYVSFGSTSEVDEKDFLETARGLVDSKQSFLWVVRPGFVKGSTWVEPLPDGFLGERGRIVKWVPQQEVLAHGAIGAFWTHCGWNSTLESICEGVPMIFSDFGLDQPLNARYMSDVLKVGVYLENGWERGEIANAIRRVMVDEEGEYIRQNARVLKQKADVSLMKGGSSYESLESLVSYISSL
B2: UGT76G1var70: UGT76G1 variant, mutations E224A_I295T_V300A_G348P (protein, UniProt Q6VAB4 1-458, looked up, variant E224A I295T V300A G348P)
UDP-glycosyltransferase 76G1: B1 UDP-glycosyltransferase 76G1 with E224A, V300A, G348P, C357S, I366V
B3: UGT76G1var75: UGT76G1 variant, mutations F41L_A239I_Q266S_S375M_P382M (protein, UniProt Q6VAB4 1-458, looked up, variant F41L A239I Q266S S375M P382M)
UDP-glycosyltransferase 76G1: B1 UDP-glycosyltransferase 76G1 with F41L, A239I, Q266S, T295I, C357S, I366V, S375M, P382M
B4: UGT76G1var72: UGT76G1 variant, mutations T284L_D301N_K303G_S375R (protein, UniProt Q6VAB4 1-458, looked up, variant T284L D301N K303G S375R)
UDP-glycosyltransferase 76G1: B1 UDP-glycosyltransferase 76G1 with T284L, T295I, D301N, K303G, C357S, I366V, S375R
B5: UGT76G1var61: UGT76G1 variant, mutations I43V_F265I_Q266S_L379A (protein, UniProt Q6VAB4 1-458, looked up, variant I43V F265I Q266S L379A)
UDP-glycosyltransferase 76G1: B1 UDP-glycosyltransferase 76G1 with I43V, F265I, Q266S, T295I, C357S, I366V, L379A
B6: UGT76G1var71: UGT76G1 variant, mutations I295M_V300A_K393G_Q432E (protein, UniProt Q6VAB4 1-458, looked up, variant I295M V300A K393G Q432E)
UDP-glycosyltransferase 76G1: B1 UDP-glycosyltransferase 76G1 with T295M, V300A, C357S, I366V, K393G, Q432E
B7: UGT76G1var59: UGT76G1 variant, mutations I335V_K393G_V394I_Y397Q (protein, UniProt Q6VAB4 1-458, looked up, variant I335V K393G V394I Y397Q)
UDP-glycosyltransferase 76G1: B1 UDP-glycosyltransferase 76G1 with T295I, I335V, C357S, I366V, K393G, V394I, Y397Q
B8: UGT76G1var4: UGT76G1 variant, mutations E224D_E231A_F265I (protein, UniProt Q6VAB4 1-458, looked up, variant E224D E231A F265I)
UDP-glycosyltransferase 76G1: B1 UDP-glycosyltransferase 76G1 with E224D, E231A, F265I, T295I, C357S, I366V
B9: UGT76G1var58: UGT76G1 variant, mutations S357C_S375M_N409R_Q425E (protein, UniProt Q6VAB4 1-458, looked up, variant S357C S375M N409R Q425E)
UDP-glycosyltransferase 76G1: B1 UDP-glycosyltransferase 76G1 with T295I, I366V, S375M, N409R, Q425E
B10: UGT76G1var67: UGT76G1 variant, mutations E224D_F314S_S375R_Y397E (protein, UniProt Q6VAB4 1-458, looked up, variant E224D F314S S375R Y397E)
UDP-glycosyltransferase 76G1: B1 UDP-glycosyltransferase 76G1 with E224D, T295I, F314S, C357S, I366V, S375R, Y397E
B11: UGT76G1var73: UGT76G1 variant, mutations F22Y_D301N_R334H_Q342E_V396F (protein, UniProt Q6VAB4 1-458, looked up, variant F22Y D301N R334H Q342E V396F)
UDP-glycosyltransferase 76G1: B1 UDP-glycosyltransferase 76G1 with F22Y, T295I, D301N, R334H, Q342E, C357S, I366V, V396F
B12: UGT76G1var69: UGT76G1 variant, mutations S274G_I295T_I335V_L379A (protein, UniProt Q6VAB4 1-458, looked up, variant S274G I295T I335V L379A)
UDP-glycosyltransferase 76G1: B1 UDP-glycosyltransferase 76G1 with S274G, I335V, C357S, I366V, L379A
B13: UGT76G1var62: UGT76G1 variant, mutations L243P_P272A_V394I_V396F (protein, UniProt Q6VAB4 1-458, looked up, variant L243P P272A V394I V396F)
UDP-glycosyltransferase 76G1: B1 UDP-glycosyltransferase 76G1 with L243P, P272A, T295I, C357S, I366V, V394I, V396F
B14: UGT76G1var65: UGT76G1 variant, mutations A33G_A239V_P382M_Q425E (protein, UniProt Q6VAB4 1-458, looked up, variant A33G A239V P382M Q425E)
UDP-glycosyltransferase 76G1: B1 UDP-glycosyltransferase 76G1 with A33G, A239V, T295I, C357S, I366V, P382M, Q425E
B15: UGT76G1var60: UGT76G1 variant, mutations E231A_L243A_V279I_S357N (protein, UniProt Q6VAB4 1-458, looked up, variant E231A L243A V279I S357N)
UDP-glycosyltransferase 76G1: B1 UDP-glycosyltransferase 76G1 with E231A, L243A, V279I, T295I, C357N, I366V
B16: UGT76G1var64: UGT76G1 variant, mutations F22L_A239I_R334H_I407V (protein, UniProt Q6VAB4 1-458, looked up, variant F22L A239I R334H I407V)
UDP-glycosyltransferase 76G1: B1 UDP-glycosyltransferase 76G1 with F22L, A239I, T295I, R334H, C357S, I366V, I407V
B17: UGT76G1var68: UGT76G1 variant, mutations Q342K_G348P_I373L_Y397E (protein, UniProt Q6VAB4 1-458, looked up, variant Q342K G348P I373L Y397E)
UDP-glycosyltransferase 76G1: B1 UDP-glycosyltransferase 76G1 with T295I, Q342K, G348P, C357S, I366V, I373L, Y397E
B18: UGT76G1var74: UGT76G1 variant, mutations I295T_I373L_S375R_Y397Q_Q432E (protein, UniProt Q6VAB4 1-458, looked up, variant I295T I373L S375R Y397Q Q432E)
UDP-glycosyltransferase 76G1: B1 UDP-glycosyltransferase 76G1 with C357S, I366V, I373L, S375R, Y397Q, Q432E
B19: UGT76G1var66: UGT76G1 variant (round 1), mutations F265L_V310I_V366I_A385T (protein, UniProt Q6VAB4 1-458, looked up, variant F265L V310I V366I A385T)
UDP-glycosyltransferase 76G1: B1 UDP-glycosyltransferase 76G1 with F265L, T295I, V310I, C357S, A385T
B20: UGT76G1var63: UGT76G1 variant, mutations F314S_R334H_Q342K_L379G (protein, UniProt Q6VAB4 1-458, looked up, variant F314S R334H Q342K L379G)
UDP-glycosyltransferase 76G1: B1 UDP-glycosyltransferase 76G1 with T295I, F314S, R334H, Q342K, C357S, I366V, L379G

Experiment: Directed evolution of UGT76G1, conversion of Rebaudioside D to Rebaudioside M (round 1)
Assay type: biochemical
Conditions: 0.5 mM Rebaudioside D, 2.5 mM UDP-Glucose, 100 μL fresh lysate, 30° C., pH 7.2
In short: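 Conversion to Reb M and initial rate were measured by HPLC with CAD at 2, 4, 7 and 24 h, with reactions run at 30° C in 50 mM phosphate pH 7.2 containing 0.5 mM Reb D, 2.5 mM UDP-glucose and 3 mM MgCl2. Enzyme source: fresh lysates of E. coli BL21(DE3) expressing 3-5-mutation UGT76G1 variants.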

| Molecule | Conversion Reb D to Reb M after 24 h (%) | initial rate (Reb M area/min) |
| --- | --- | --- |
| B1 | 9.6% | 1.6E+06 Reb M area/min |
| B2 | 24.0% | 8.4E+06 Reb M area/min |
| B3 | 0.8% | −1.3E+05 Reb M area/min |
| B4 | 19.2% | 9.1E+06 Reb M area/min |
| B5 | 6.4% | 2.0E+06 Reb M area/min |
| B6 | 42.9% | 2.1E+07 Reb M area/min |
| B7 | 33.0% | 2.7E+07 Reb M area/min |
| B8 | 14.7% | 8.6E+06 Reb M area/min |
| B9 | 7.5% | 2.2E+06 Reb M area/min |
| B10 | −2.1% | −5.6E+05 Reb M area/min |
| B11 | 0.8% | 8.7E+05 Reb M area/min |
| B12 | 24.7% | 8.3E+06 Reb M area/min |
| B13 | 0.1% | 3.4E+04 Reb M area/min |
| B14 | 1.2% | 3.3E+05 Reb M area/min |
| B15 | 0.5% | 9.5E+04 Reb M area/min |
| B16 | 0.3% | 3.1E+04 Reb M area/min |
| B17 | −1.4% | −1.1E+05 Reb M area/min |
| B18 | 0.6% | 9.6E+04 Reb M area/min |
| B19 | 0.8% | 3.7E+05 Reb M area/min |
| B20 | 3.4% | 1.2E+06 Reb M area/min |
